Laboratory results published in patent US20210032329A1.

Experiments:
[1] = biological target: marmoset SEMA4D-His (marmoset); test: BIACORE; antibody captured with goat anti-human IgG Fc, marmoset SEMA4D-His as analyte (second row for this antibody)
[2] = biological target: marmoset SEMA4D-His (marmoset); test: BIACORE; antibody captured with goat anti-human IgG Fc, marmoset SEMA4D-His as analyte
[3] = biological target: cynomolgus monkey SEMA4D-His (cynomolgus monkey); test: receptor blocking; antibody dilution series pre-incubated with SEMA4D-His, binding to 293PLXNB1 cells (Plexin B1) read by flow cytometry
rat SEMA4D-His (rat) = test: as above
mouse SEMA4D-His (mouse) = mouse SEMA4D-His (mouse) (UniProt O09126); test: as above
human SEMA4D-His (human) = human SEMA4D-His (human) (UniProt Q92854); test: as above
Chain of human SEMA4D-His (human) (Q92854 22-734 limits assumed): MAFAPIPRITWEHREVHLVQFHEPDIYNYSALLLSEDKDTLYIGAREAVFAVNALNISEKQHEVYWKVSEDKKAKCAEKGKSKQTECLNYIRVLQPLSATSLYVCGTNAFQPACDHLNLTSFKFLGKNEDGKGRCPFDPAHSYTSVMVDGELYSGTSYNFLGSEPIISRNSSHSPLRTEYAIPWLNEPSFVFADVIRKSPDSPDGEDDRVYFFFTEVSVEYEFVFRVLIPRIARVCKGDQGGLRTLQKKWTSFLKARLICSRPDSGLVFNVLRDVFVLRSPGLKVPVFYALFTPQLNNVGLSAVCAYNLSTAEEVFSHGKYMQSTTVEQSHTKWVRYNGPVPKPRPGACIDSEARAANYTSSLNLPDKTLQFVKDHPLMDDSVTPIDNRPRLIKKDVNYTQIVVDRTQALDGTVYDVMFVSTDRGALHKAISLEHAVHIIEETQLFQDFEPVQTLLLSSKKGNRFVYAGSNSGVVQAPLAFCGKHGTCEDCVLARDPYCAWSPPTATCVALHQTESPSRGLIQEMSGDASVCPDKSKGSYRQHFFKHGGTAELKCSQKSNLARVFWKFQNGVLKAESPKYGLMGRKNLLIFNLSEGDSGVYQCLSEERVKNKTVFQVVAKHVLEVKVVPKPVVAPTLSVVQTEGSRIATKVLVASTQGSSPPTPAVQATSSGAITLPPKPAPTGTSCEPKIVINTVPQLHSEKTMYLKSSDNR

Chain of marmoset SEMA4D-His (marmoset) (chain, as listed by the source): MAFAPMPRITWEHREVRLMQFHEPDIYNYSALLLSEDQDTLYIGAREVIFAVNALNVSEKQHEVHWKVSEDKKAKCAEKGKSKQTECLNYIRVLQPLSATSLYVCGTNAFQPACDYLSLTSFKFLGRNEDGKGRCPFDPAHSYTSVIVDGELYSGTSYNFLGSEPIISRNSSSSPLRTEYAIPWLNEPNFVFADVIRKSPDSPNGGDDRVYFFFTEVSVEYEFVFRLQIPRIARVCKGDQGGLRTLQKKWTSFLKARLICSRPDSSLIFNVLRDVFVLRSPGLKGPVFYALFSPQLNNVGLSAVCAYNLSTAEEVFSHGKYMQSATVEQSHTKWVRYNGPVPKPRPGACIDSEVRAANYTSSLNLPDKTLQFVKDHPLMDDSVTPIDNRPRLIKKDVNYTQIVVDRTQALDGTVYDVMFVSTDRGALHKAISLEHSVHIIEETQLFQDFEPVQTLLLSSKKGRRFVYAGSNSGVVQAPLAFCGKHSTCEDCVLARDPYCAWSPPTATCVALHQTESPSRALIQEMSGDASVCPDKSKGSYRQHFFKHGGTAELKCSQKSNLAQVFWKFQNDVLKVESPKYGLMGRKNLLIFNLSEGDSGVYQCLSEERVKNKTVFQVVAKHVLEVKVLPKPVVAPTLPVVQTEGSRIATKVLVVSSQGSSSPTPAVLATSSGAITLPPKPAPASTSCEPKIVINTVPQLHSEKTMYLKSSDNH
Chain of rat SEMA4D-His (rat) (chain, as listed by the source): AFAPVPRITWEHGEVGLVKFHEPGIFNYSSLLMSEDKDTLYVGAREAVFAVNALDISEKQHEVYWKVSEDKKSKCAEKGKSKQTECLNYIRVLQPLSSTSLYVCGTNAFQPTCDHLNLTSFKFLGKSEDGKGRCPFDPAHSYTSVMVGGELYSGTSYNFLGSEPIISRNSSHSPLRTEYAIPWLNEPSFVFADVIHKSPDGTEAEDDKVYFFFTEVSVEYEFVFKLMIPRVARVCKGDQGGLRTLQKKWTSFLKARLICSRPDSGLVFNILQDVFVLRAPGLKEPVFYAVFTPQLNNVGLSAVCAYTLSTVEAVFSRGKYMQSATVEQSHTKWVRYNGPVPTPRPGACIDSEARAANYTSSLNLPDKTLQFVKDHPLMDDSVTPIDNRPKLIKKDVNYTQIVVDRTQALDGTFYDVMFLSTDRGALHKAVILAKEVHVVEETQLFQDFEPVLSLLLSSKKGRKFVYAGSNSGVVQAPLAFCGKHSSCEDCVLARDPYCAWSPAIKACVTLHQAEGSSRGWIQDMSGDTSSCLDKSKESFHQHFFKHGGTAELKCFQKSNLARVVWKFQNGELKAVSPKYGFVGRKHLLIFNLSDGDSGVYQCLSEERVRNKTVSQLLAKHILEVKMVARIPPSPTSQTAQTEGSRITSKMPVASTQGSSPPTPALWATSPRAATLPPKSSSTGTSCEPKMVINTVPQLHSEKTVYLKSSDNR
Chain of mouse SEMA4D-His (mouse) (O09126 24-733 limits assumed): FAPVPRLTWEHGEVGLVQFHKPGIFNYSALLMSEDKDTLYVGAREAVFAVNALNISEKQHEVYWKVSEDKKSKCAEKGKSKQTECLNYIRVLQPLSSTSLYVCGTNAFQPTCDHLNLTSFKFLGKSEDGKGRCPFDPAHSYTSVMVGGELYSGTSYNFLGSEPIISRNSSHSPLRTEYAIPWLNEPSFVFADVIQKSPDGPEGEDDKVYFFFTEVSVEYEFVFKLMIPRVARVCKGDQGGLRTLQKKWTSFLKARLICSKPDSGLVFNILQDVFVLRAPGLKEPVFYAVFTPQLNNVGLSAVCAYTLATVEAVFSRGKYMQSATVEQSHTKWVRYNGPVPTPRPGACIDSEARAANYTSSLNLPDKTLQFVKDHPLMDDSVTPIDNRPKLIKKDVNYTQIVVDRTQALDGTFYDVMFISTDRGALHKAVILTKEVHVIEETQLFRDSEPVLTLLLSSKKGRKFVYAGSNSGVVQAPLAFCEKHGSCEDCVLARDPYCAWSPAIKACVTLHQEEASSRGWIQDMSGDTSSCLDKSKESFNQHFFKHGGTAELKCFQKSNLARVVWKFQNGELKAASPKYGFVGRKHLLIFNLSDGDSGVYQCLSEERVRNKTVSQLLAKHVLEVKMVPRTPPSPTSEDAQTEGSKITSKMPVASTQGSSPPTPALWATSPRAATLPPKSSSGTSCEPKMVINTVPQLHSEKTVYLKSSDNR

Ka [1]: 2.4e+08 M⁻¹ | Kd [1]: 4.17 nM | koff [1]: 0.00126 s⁻¹ | kon [1]: 302000 M⁻¹ s⁻¹ | Ka [2]: 2.06e+08 M⁻¹ | Kd [2]: 4.86 nM | koff [2]: 0.00118 s⁻¹ | kon [2]: 243000 M⁻¹ s⁻¹ | EC50 [3]: 0.5 nM | EC50 (rat SEMA4D-His (rat)): 0.6 nM | EC50 (mouse SEMA4D-His (mouse)): 0.4 nM | EC50 (human SEMA4D-His (human)): 0.3 nM
B1: humanized MAb 2503 (VX15/2503) (antibody, INN chains, looked up, V domains shown)
VH: QVQLVQSGAEVKKPGSSVKVSCKASGYSFSDYYMHWVRQAPGQGLEWMGQINPTTGGASYNQKFKGKATITVDKSTSTAYMELSSLRSEDTAVYYCARYYYGRHFDVWGQGTTVTVSS
VL: DIVMTQSPDSLAVSLGERATINCKASQSVDYDGDSYMNWYQQKPGQPPKLLIYAASNLESGVPDRFSGSGSGTDFTLTISSLQAEDVAVYYCQQSNEDPYTFGQGTKLEIK
